Data set [1] concerns CBC1. Put plainly: HT1-dependent CBC1 kinase activation, in vitro phosphorylation and in-gel kinase assays. The format is biochemical, Arabidopsis. The settings on record: kinase inactive isoforms, histone as substrate. An excerpt: A previous study reported that the HT1 kinase phosphorylates the CBC1 kinase in vitro (13). Whether this phosphorylation of CBC1 affects CBC1 activity remains unknown. We confirmed CBC1 phosphorylation by HT1 using recombinant His-HT1 and GST-CBC1 proteins by in vitro phosphorylation assays using radioactive ^32P-ATP (FIG. 5). Moreover, phosphorylation levels of histone, an artificial kinase substrate, were increased at the same time. […] In-gel kinase assays were pursued to test this hypothesis and provide direct evidence of HT1-dependent CBC1 kinase activation (FIG. 1A). […] We identified in vitro phosphorylation sites in CBC1 using mass spectrometry by analyzing recombinant CBC1 protein in the presence or absence of HT1 (FIG. 1C). We found two HT1-dependent phosphorylation sites (Thr-256 and Ser-280) that lie within or near the activation-loop of CBC1.
FIG. 1. […] Histone was used as an artificial phosphorylation substrate of CBC1. • (C) Recombinant CBC1 proteins were incubated with or without HT1 and ATP, and CBC1 phosphorylation sites were identified by mass spectrometry. The red fonts indicate HT1-dependent phosphorylation sites. CBC1 autophosphorylation sites detected without HT1 addition are labeled in black fonts. […] CBB gels show loading controls.

Data set [2] addresses T1, His-HT1 (recombinant Arabidopsis HT1 protein kinase, wild type, with His tag).
T1 chain: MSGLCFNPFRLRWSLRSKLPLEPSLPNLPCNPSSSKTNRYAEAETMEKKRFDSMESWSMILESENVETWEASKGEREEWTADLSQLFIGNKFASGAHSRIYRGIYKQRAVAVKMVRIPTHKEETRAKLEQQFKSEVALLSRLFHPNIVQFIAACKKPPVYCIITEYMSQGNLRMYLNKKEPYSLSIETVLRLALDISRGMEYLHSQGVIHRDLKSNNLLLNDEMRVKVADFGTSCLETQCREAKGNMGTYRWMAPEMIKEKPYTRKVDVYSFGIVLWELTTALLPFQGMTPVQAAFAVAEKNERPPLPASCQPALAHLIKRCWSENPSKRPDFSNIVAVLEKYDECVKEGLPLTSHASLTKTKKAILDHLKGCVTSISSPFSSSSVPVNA

For data set [3], the system named is MPK4/12, HT1 and CBC1 recombinant proteins. Put plainly: in vitro phosphorylation assay: NaHCO3-dependent down-regulation of HT1-mediated CBC1 phosphorylation. The format is biochemical, Arabidopsis. The following applies: isoform replaces wild type protein or is added; 20 mM NaHCO3 vs NaCl control, 30 min. As for the experimental part:
We tested whether this HT1-mediated activation of CBC1 is inhibited by CO2/bicarbonate by adding NaHCO3 in in vitro phosphorylation reactions. […]
FIG. 2. […] Histone was used as an artificial protein kinase substrate. • (B) MPK4, HT1 and CBC1 proteins were incubated with NaHCO3 at the indicated concentrations for 30 min, and in vitro phosphorylation assays were performed. • (C) CBC1 band intensities as shown in (B) were measured using IMAGEJ™, n=4 experiments, error bars show ±S.D. • (D) MPK4, HT1 and CBC1 proteins were incubated in reaction buffers adjusted at different pH (6.5 to 8.5) for 30 min, and in vitro phosphorylation assays were performed. • (E) CBC1 band intensities and the density-ratios of ‘+NaHCO3’ to ‘—NaHCO3’ (=+NaCl controls) for each pH condition
FIG. 3. […] Ambient CO2 concentrations are indicated by the top bars. n=7 experiments, error bars show ±SEM. • (C) Recombinant HT1 (wild type, HT1-G89R or HT1-R173Q) and CBC1 proteins were incubated with MPK4 in the presence or absence of 20 mM NaHCO3 or 20 mM NaCl (−controls) for 30 min, and in vitro phosphorylation assays were performed. • (D) Recombinant MPK12, CBC1 and HT1 (WT or R102K) proteins were incubated with or without 20 mM NaHCO3 or 20 mM NaCl (−controls) for 30 min, and in vitro phosphorylation assays were performed. Histone was used as an artificial kinase substrate. • (E) HT1 (WT or A109V) proteins were used for in vitro phosphorylation assays. Proteins were incubated with or without 20 mM NaHCO3 or 20 mM NaCl (−controls) for 30 min. • (F) Stomatal conductances were analyzed using intact plants of Arabidopsis (Col-0 (WT), cbc1 cbc2, ht1-A109V and cbc1 cbc2 ht1-A109V). CO2 concentration changes were applied as indicated on top (p.p.m.). […]

The test system of data set [4] is MPK4 and HT1. Briefly: in vitro pull-down assay, His-HT1 with GST-MPK4. The format is binding, Arabidopsis. The settings on record: pull-down with or without 20 mM NaHCO3. As for the experimental part:
We therefore investigated a possible binding between MPK4 and HT1 and the effect of HCO3^−.
FIG. 4. […] CO2 concentration changes were applied as indicated on top (p.p.m.). n=6 experiments, error bars show ±SEM. • (J) Model of plant stomatal CO2 sensor and signaling (see text).
FIG. 6. […] Precipitated proteins were washed with buffers supplemented with NaHCO3 at the indicated concentrations (0, 2 or 20 mM). See FIG. 4d for an independent experiment. To control for effects of Na^+, 20 mM NaCl (0 mM NaHCO3) for lanes 1 and 4 were included in the buffers; and 18 mM NaCl (2 mM NaHCO3) for lane 3 were included in buffer.

B1: CBC1-D253A: kinase inactive CBC1 isoform (protein, UniProt Q9SSA4 1-411, looked up, variant D253A)
Serine/threonine-protein …: MKEKAESGGGVGYVRADQIDLKSLDEQLQRHLSKAWTMEKRKSLSDGEDNVNNTRHNQNNFGHRQLVFQRPLLGGGYSNNNNSSKNDIIRSTEVEKSRREWEIDPSKLIIKSVIARGTFGTVHRGIYDGQDVAVKLLDWGEEGHRSDAEIASLRAAFTQEVAVWHKLDHPNVTKFIGAAMGTSEMSIQTENGQMGMPSNVCCVVVEYCPGGALKSFLIKTRRRKLAFKVVIQLSLDLARGLSYLHSQKIVHRAVKTENMLLDKSRTLKIADFGVARLEASNPNDMTGETGTLGYMAPEVLNGSPYNRKCDVYSFGICLWEIYCCDMPYPDLSFSEVTSAVVRQNLRPEIPRCCPSSLANVMKRCWDANPEKRPEMEEVVAMLEAIDTSKGGGMIPPDQQQGCFCFRRHRGP
As for B1, the “HT1-dependent activation/phosphorylation of CBC1” value in data set [1] was “reduced phosphorylation level compared to wild type CBC1”.

B2: His-BdMPK5 (D90N), chill1 variant isoform (protein)
chain: MRMEGGGAGPAAAAAAGGAHGLGEAQIKGTLTHGGRYVQYNVYGNLFEVSAKYVPPIRPVGRGACGIICAAINVQTREEVAIKKIGNAFNNQIDAKRTLREVKLLRHMNHENVISIKDIIRPPRRENFNDVYIVYELMDTDLHHLLRSNQPLTDDHCQYFLYQVLRGLKYVHSANVLHRDLRPSNLLLNAKCDLKIGDFGLARTTTETDFMMEYVVTRWYRAPELLLNCSEYTGAIDMWSVGCILGEIATREPLFPGKDYVHQLRLITELLGSPDDTSLGFLRSDNARRYVRSLPQYPKQQFRSRFPNMSSGAMDLLERMLVFDPNKRITVDEALCHPYLASLHEINDEPVCPAPFSFDFEQPSFTEEDIKELIWRESVKFNPEPIH
Regarding B2, the “CBC1 phosphorylation, in vitro phosphorylation assay with GST-CBC1, His-HT1 and His-BdMPK5 (D90N), with or without 20 mM NaHCO3 (n=2)” value in data set [2] was “The BdMPK5-D90N variant protein abrogated the high CO2/bicarbonate-mediated downregulation of CBC1 phosphorylation”.

B3: His-BdMPK5 (WT), recombinant Brachypodium distachyon BdMPK5 (protein)
chain: MRMEGGGAGPAAAAAAGGAHGLGEAQIKGTLTHGGRYVQYNVYGNLFEVSAKYVPPIRPVGRGACGIICAAINVQTREEVAIKKIGNAFDNQIDAKRTLREVKLLRHMNHENVISIKDIIRPPRRENFNDVYIVYELMDTDLHHLLRSNQPLTDDHCQYFLYQVLRGLKYVHSANVLHRDLRPSNLLLNAKCDLKIGDFGLARTTTETDFMMEYVVTRWYRAPELLLNCSEYTGAIDMWSVGCILGEIATREPLFPGKDYVHQLRLITELLGSPDDTSLGFLRSDNARRYVRSLPQYPKQQFRSRFPNMSSGAMDLLERMLVFDPNKRITVDEALCHPYLASLHEINDEPVCPAPFSFDFEQPSFTEEDIKELIWRESVKFNPEPIH
As for B3, the “CBC1 protein kinase activity, in vitro phosphorylation assay with GST-CBC1, His-HT1 and His-BdMPK5, with or without 20 mM NaHCO3 (n=2)” value in data set [2] is “HT1 and CBC1 together with the BdMPK5 protein showed a high CO2/bicarbonate-induced down-regulation of the CBC1 protein kinase activity”.

B4: MPK12 (recombinant Arabidopsis MAP kinase MPK12) (protein)
chain: MSGESSSGSTEHCIKVVPTHGGRYVQYNVYGQLFEVSRKYVPPIRPIGRGACGIVCAAVNSVTGEKVAIKKIGNAFDNIIDAKRTLREIKLLRHMDHENVITIKDIVRPPQRDIFNDVYIVYELMDTDLQRILRSNQTLTSDQCRFLVYQLLRGLKYVHSANILHRDLRPSNVLLNSKNELKIGDFGLARTTSDTDFMTEYVVTRWYRAPELLLNCSEYTAAIDIWSVGCILGEIMTGQPLFPGKDYVHQLRLITELVGSPDNSSLGFLRSDNARRYVRQLPRYPKQQFAARFPKMPTTAIDLLERMLVFDPNRRISVDEALGHAYLSPHHDVAKEPVCSTPFSFDFEHPSCTEEHIKELIYKESVKFNPDH
Regarding B4, in data set [2], the “CBC1 and histone phosphorylation in vitro (HT1 + CBC1 + MPK12, 20 mM NaHCO3; FIG. 2A, n>6)” value was “when MPK4 or MPK12 were added to the reaction, we found that the addition of NaHCO3, but not NaCl, inhibited both CBC1 phosphorylation and histone phosphorylation in vitro”; the “HT1 kinase activity, in vitro phosphorylation assay with or without 20 mM NaHCO3 (FIG. 4B, n=3)” value is recorded as “HT1 kinase activity was inhibited in response to NaHCO3, only in the presence of MPK12”.

B5: MPK12-K70R: kinase inactive MPK12 isoform (protein)
chain: MSGESSSGSTEHCIKVVPTHGGRYVQYNVYGQLFEVSRKYVPPIRPIGRGACGIVCAAVNSVTGEKVAIRKIGNAFDNIIDAKRTLREIKLLRHMDHENVITIKDIVRPPQRDIFNDVYIVYELMDTDLQRILRSNQTLTSDQCRFLVYQLLRGLKYVHSANILHRDLRPSNVLLNSKNELKIGDFGLARTTSDTDFMTEYVVTRWYRAPELLLNCSEYTAAIDIWSVGCILGEIMTGQPLFPGKDYVHQLRLITELVGSPDNSSLGFLRSDNARRYVRQLPRYPKQQFAARFPKMPTTAIDLLERMLVFDPNRRISVDEALGHAYLSPHHDVAKEPVCSTPFSFDFEHPSCTEEHIKELIYKESVKFNPDH
Regarding B5, the “NaHCO3-mediated down-regulation of CBC1 phosphorylation/activity with the protein isoform in the reaction” value in data set [3] was “retained the ability to mediate CO2/bicarbonate-induced CBC1 inhibition”.

B6: HT1-K113W: kinase inactive HT1 mutant (protein)
chain: MSGLCFNPFRLRWSLRSKLPLEPSLPNLPCNPSSSKTNRYAEAETMEKKRFDSMESWSMILESENVETWEASKGEREEWTADLSQLFIGNKFASGAHSRIYRGIYKQRAVAVWMVRIPTHKEETRAKLEQQFKSEVALLSRLFHPNIVQFIAACKKPPVYCIITEYMSQGNLRMYLNKKEPYSLSIETVLRLALDISRGMEYLHSQGVIHRDLKSNNLLLNDEMRVKVADFGTSCLETQCREAKGNMGTYRWMAPEMIKEKPYTRKVDVYSFGIVLWELTTALLPFQGMTPVQAAFAVAEKNERPPLPASCQPALAHLIKRCWSENPSKRPDFSNIVAVLEKYDECVKEGLPLTSHASLTKTKKAILDHLKGCVTSISSPFSSSSVPVNA
As for B6, the “HT1-dependent activation/phosphorylation of CBC1” value in data set [1] is listed as “did not activate CBC1”.

B7: HT1-G89R: recombinant HT1 protein kinase isoform with dominant G89R mutation (protein)
chain: MSGLCFNPFRLRWSLRSKLPLEPSLPNLPCNPSSSKTNRYAEAETMEKKRFDSMESWSMILESENVETWEASKGEREEWTADLSQLFIRNKFASGAHSRIYRGIYKQRAVAVKMVRIPTHKEETRAKLEQQFKSEVALLSRLFHPNIVQFIAACKKPPVYCIITEYMSQGNLRMYLNKKEPYSLSIETVLRLALDISRGMEYLHSQGVIHRDLKSNNLLLNDEMRVKVADFGTSCLETQCREAKGNMGTYRWMAPEMIKEKPYTRKVDVYSFGIVLWELTTALLPFQGMTPVQAAFAVAEKNERPPLPASCQPALAHLIKRCWSENPSKRPDFSNIVAVLEKYDECVKEGLPLTSHASLTKTKKAILDHLKGCVTSISSPFSSSSVPVNA
Turning to B7, in data set [4], the “HCO3- dependent binding of HT1 isoform with MPK4” value is “disrupts the HCO3^−-dependent binding with MPK4”. In data set [3], the “NaHCO3-mediated down-regulation of CBC1 phosphorylation/activity with the protein isoform in the reaction” value is “no NaHCO3-mediated inhibition of CBC1 activity”.

For the origin of these results see US20260078398A1, “PLANTS GENETICALLY ENGINEERED FOR INCREASED WATER USE EFFICIENCY AND CARBON INTAKE AND METHODS FOR MAKING AND USING THEM” (The Regents of the University of California, priority 2022, published 2026).
